This assay has as its target T1, Mycobacterium tuberculosis GlgE (Mycobacterium tuberculosis), P9WQ17.
T1 chain: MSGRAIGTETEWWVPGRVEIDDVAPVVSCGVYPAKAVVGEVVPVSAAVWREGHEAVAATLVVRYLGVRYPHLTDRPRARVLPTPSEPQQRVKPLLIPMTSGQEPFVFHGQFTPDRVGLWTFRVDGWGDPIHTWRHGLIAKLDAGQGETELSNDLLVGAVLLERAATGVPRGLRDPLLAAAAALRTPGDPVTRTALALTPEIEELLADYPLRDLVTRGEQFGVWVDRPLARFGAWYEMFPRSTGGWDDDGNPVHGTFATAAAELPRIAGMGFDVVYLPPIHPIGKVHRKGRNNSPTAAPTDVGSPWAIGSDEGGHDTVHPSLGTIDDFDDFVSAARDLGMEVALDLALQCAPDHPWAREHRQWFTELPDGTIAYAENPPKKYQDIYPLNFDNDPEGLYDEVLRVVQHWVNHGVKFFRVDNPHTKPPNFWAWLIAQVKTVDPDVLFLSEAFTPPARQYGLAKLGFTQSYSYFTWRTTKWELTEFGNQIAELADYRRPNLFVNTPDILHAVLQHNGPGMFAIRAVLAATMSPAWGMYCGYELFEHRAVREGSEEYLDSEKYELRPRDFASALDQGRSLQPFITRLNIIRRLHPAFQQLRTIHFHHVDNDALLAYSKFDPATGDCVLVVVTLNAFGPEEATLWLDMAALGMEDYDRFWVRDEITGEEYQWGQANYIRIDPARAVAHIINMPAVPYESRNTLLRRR
Briefly: crystal structure; Mtb GlgE co-crystallised with 10 mM maltose (hanging drop, 0.1 M HEPES pH 7.5, 1.0 M ammonium formate), 3.3 Å; the same crystals soaked with 10 mM maltohexaose, 4.0 Å; homodimer seen in the crystal. The conditions noted are these: remark: other sources report otherwise.

B1: Mycobacterium tuberculosis GlgE, P9WQ17 1-701 (enzyme)
chain: MSGRAIGTETEWWVPGRVEIDDVAPVVSCGVYPAKAVVGEVVPVSAAVWREGHEAVAATLVVRYLGVRYPHLTDRPRARVLPTPSEPQQRVKPLLIPMTSGQEPFVFHGQFTPDRVGLWTFRVDGWGDPIHTWRHGLIAKLDAGQGETELSNDLLVGAVLLERAATGVPRGLRDPLLAAAAALRTPGDPVTRTALALTPEIEELLADYPLRDLVTRGEQFGVWVDRPLARFGAWYEMFPRSTGGWDDDGNPVHGTFATAAAELPRIAGMGFDVVYLPPIHPIGKVHRKGRNNSPTAAPTDVGSPWAIGSDEGGHDTVHPSLGTIDDFDDFVSAARDLGMEVALDLALQCAPDHPWAREHRQWFTELPDGTIAYAENPPKKYQDIYPLNFDNDPEGLYDEVLRVVQHWVNHGVKFFRVDNPHTKPPNFWAWLIAQVKTVDPDVLFLSEAFTPPARQYGLAKLGFTQSYSYFTWRTTKWELTEFGNQIAELADYRRPNLFVNTPDILHAVLQHNGPGMFAIRAVLAATMSPAWGMYCGYELFEHRAVREGSEEYLDSEKYELRPRDFASALDQGRSLQPFITRLNIIRRLHPAFQQLRTIHFHHVDNDALLAYSKFDPATGDCVLVVVTLNAFGPEEATLWLDMAALGMEDYDRFWVRDEITGEEYQWGQANYIRIDPARAVAHIINMPAVPYESRNTLLRRR
On to B1, for which the stoichiometry N came to 2.

(Values after PMC4526890, “Crystal structures of Mycobacterium tuberculosis GlgE and complexes with non-covalent inhibitors” (Scientific Reports, 2015).)
